Reference: US20140193417A1 (LUDWIG INSTITUTE FOR CANCER RESEARCH, published 2014)

Target: T1, sodium-dependent phosphate transport protein 2b (NaPi2b, SLC34A2), human, endogenous (human, UniProt O95436 1-690)
T1 construct: whole, on cells; Naturally expressed, N-glycosylated membrane protein of human cancer cell lines (OVCAR-3, SK-RC-18 and others) and tissues; used on intact cells (MHA, flow cytometry), in cell or tissue lysates (Western blot, immunoprecipitation) and in tissue sections; also called MX35 antigen; NaPi2b/MX35
T1 sequence (looked up): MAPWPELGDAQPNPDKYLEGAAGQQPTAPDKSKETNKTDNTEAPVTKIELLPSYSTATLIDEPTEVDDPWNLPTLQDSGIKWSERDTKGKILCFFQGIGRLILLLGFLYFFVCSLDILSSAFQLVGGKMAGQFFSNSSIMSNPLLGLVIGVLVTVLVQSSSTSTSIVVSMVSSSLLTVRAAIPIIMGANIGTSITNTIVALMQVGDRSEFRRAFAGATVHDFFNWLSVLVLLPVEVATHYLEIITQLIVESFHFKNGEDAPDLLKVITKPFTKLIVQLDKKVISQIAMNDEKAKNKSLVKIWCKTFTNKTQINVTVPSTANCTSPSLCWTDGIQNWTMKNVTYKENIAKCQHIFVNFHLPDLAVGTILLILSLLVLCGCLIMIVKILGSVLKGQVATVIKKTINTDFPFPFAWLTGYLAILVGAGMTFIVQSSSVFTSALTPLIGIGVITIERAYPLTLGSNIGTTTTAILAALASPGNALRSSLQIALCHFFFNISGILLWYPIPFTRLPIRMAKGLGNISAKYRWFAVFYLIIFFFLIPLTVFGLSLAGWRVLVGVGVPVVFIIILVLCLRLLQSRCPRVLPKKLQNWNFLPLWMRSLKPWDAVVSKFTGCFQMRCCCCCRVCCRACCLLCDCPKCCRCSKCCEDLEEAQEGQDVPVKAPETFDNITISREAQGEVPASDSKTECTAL
Assay: flow cytometry on SK-RC-18 cells, 20 ug/ml antibody
Experimental: The binding efficacy of humanized MX35 antibody, synthesized and purified as described above, was compared with the murine version of the MX35 antibody, using fluorescein isothiocyanate—FITC—marker to assess the specific binding to different cells lines in flow cytometry. The cell lines listed in TABLE 4 were trypsinized, adjusted to a concentration of 2.5×10⁵ cells and distributed in 1.5 mL test tubes. After centrifugation the pellet was resuspended in 100 uL of primary antibody (either murine MX35, humanized MX35, hu3S193 or Zenapax®) diluted in the same culture medium used to cultivate the cells in the concentration of 20 μg/ml. In the case of controls “cells only” and FITC-conjugates, the cells were resuspended in 100 μL of medium culture. The mixtures were incubated for 1 h at 4° C. and then washed twice with 200 μL of phosphate buffered saline. The cells were resuspended in 100 μL of secondary antibody-FITC conjugated, either murine or human depending on the MX35 antibody version used. The control “cells only” tube received medium culture only. […] Staining of the cells with the fluorescent probes was measured in a fluid stream in the flow cytometry Guava® ExpressPro (Guava EasyCyte Mini System). For each individual experiment 10,000 events were acquired and counted.

binding result: binds
B1: humanized MX35 (huMX35) monoclonal antibody (antibody, V domains shown)
VH: QVQLVQSGAEVVKPGASVKMSCKASGYTFTGYNIHWVKQAPGQGLEWIGAIYPGNGDTSYKQKFRGRATLTADTSTSTVYMELSSLRSEDSAVYYCARGETARATFAYWGQGTLVTVSS
VL: DIQMTQSPSSLSASVGDRVTITCSASQDIGNFLNWYQQKPGKTVKVLIYYTSSLYSGVPSRFSGSGSGTDYTLTISSLQPEDFATYYCQQYSKLPLTFGQGTKLELKR
notes: Produced in Per.C6 cells, protein A purified; also called Human MX35; humanized MX35 antibody
